Assay results from patent US20250268941A1 (AUTOLUS, published 2025).

Key:
[1] = molecular target: BCMA on the cell surface (SupT1.BCMAhigh, SupT1.BCMAlow, MM.1s, JeKo-1 cells) (human) (UniProt Q02223); assay: cell-based or functional assay
BCMA-Avi = molecular target: T1, BCMA-Avi (Homo sapiens, UniProt Q02223, biotinylated at the AviTag (implied by detection with streptavidin-APC); position not given); assay: flow cytometry of live CD3+ T cells transduced with CAT-41BB-ζ alone, stained with BCMA-AviTag plus streptavidin-APC; the staining concentration is not given [a]
T1 construct: soluble recombinant staining reagent; also called BCMA-AviTag; BCMA-Avi/Strep-APC
T1 sequence (recombinant BCMA with AviTag, looked up): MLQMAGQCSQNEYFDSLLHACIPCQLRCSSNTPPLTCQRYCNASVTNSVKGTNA

soluble BCMA ectodomain [2] = molecular target: T2, soluble BCMA ectodomain (human, UniProt Q02223 1-54); assay: SPR, BCMA 50 nM serially diluted to 0.19 nM
T2 construct: extracellular domain
T2 sequence (looked up): T1 sequence (recombinant BCMA with AviTag, looked up)
Protocol: (§1) FIG. 6—Surface plasmon resonance sensogram of binding kinetics between D8 IgG and BCMA is shown. BCMA starting concentration was 50 nM with serial dilutions to 0.19 nM.
(§2) D8 IgG binding to soluble BCMA ectodomain was also studied using surface plasmon resonance (FIG. 6).

soluble BCMA ectodomain [3] = molecular target: T2, soluble BCMA ectodomain; assay: SPR, soluble BCMA ectodomain as analyte
Protocol: as §1, §2

For bb2121 CAR, the viable SupT1 BCMAlow targets remaining, 24 h co-culture, E:T 1:8 [1] was 21.1%.

LCAR-B38M CAR was tested, and the viable SupT1 BCMAlow targets remaining, 24 h co-culture, E:T 1:8 [1] was 25.5%.

B1: CAT-41BB-ζ CAR (other)
chain: QVQLQQSGPELVKPGASVKISCKASGYAFSSSWMNWVKQRPGKGLEWIGRIYPGDEDTNYSGKFKDKATLTADKSSTTAYMQLSSLTSEDSAVYFCARSLLYGDYLDYWGQGTTLTVSSGGGGSGGGGSGGGGSQIVLTQSPAIMSASPGEKVTMTCSASSSVSYMHWYQQKSGTSPKRWIYDTSKLASGVPDRFSGSGSGTSYFLTINNMEAEDAATYYCQQWNINPLTFGAGTKLELKRSDPTTTPAPRPPTPAPTIASQPLSLRPEACRPAAGGAVHTRGLDFACDIYIWAPLAGTCGVLLLSLVITLYCKRGRKKLLYIFKQPFMRPVQTTQEEDGCSCRFPEEEEGGCELRVKFSRSADAPAYQQGQNQLYNELNLGRREEYDVLDKRRGRDPEMGGKPRRKNPQEGLYNELQKDKMAEAYSEIGMKGERRRGKGHDGLYQGLSTATKDTYDALHMQALPPR
notes: Expressed on primary human T cells; also called CAT19 CAR; CAT19CAR using Campana architecture
B1: no binding (BCMA-Avi).

B2: D8 IgG (antibody, V domains shown)
VH: EVQLVESGGGLVQPGRSLKLSCAASGFIFSDYNMAWVRQAPKKGLEWVATIIYDGSSTNHGDSVKGRFTISRDNAKSTLYLQMDSLRSEDTATYYCATRPGPFAYWGQGTLVTVS
VL: DVVLTQTPPTLSATIGQSVSISCRSSQSLLHSNGNTYLHWLLQRPGQSPQFLIYLVSGLGSGVPNRFSGSGSGTDFTLKISGVEAEDLGIYYCVHGTHAWTVGGGTKLELK
For B2, the koff (soluble BCMA ectodomain [2]) was 0.00433 s⁻¹ and the Kd (soluble BCMA ectodomain [3]) was 126 pM.
